B1: 18-675 (nucleic acid)
DNA: CCCACAGCAAGAATGCCATCATCTGTCCTCACCCCCAATTTTCCCTTTTCTTCCCCTGCAACCATTACGCTTACTCGCATGTGCATTGAGTGGTGCATGTGTTGAACAAACAGCTACACTCACATGGGGGCGGGTTTTCCCGCCCTACGGCCTCTCGCGAGGCCCACCCCTTCCCTCCCCTTATAACTACAGTGCTTTGGTAGGTAAGCATCCTGATCCCCCGCGGAAGCTGCTCACGTGGCAACTGTGGGGACCCAGACAGGTTATCAAAGGCACCCGGTCTTTCCGCCTTCAGGAGTATCCCTACTAGTGAATTCTAGCGGGGCTCTGCTTGGTGCCAACCTCCCCCAAATGCGCGCTGCGGGAGTGCTCTTCCCCAACTCACCCTAGTATCCTCTCATGTGTGTGCTTGGTCAGCATATCTGAGACGATGTTCCGCTGTCCCAGACCAGTCCAGTAATGGACGGGCCAGTGCGTGTAGTCGTCTTCCGGCTTGTCCGGGGCATGTTTGGTGAACCGGTGGGGTAAGGTTGGTGTGCCCAACGCCCGTACTTTGGTGACACCTCAAGACCACCCAGGAATGCCAGGGAGGTACCCCACCTCACGGTGGGATCTGACCCTGGGCTAATTGTCTACGGTGGTTCTTCTTGCTTCCACTTCTTTCTTCTGTTCACG
modifications: source: /note="Description of Unknown: 18-675 sequence"
B2: Tottorivirus (nucleic acid, listed as Tottorivirus sp.)
DNA: CCCCTTTACGTAACTGCAACTTAAAGAGTACCCTACTGCATTGGATGTGTGGTAAACTTTTACGCACACATTTGTAGTAGTGTTAGTTATGTTCTACCTAATGAGTATGCATGCACCCGTCGAAACACGCTTGTGATAAGATAGGTGAGTCCATGTGACTAATCTCATTAAGATAAATAAGCACCCTACAACGCACGGCACGCTCGTGTCTTCCGTGCGGGGCCGGGACAACAGCGGCCTAAATCTTCTAGGTGACCACCATGCTTTTGGGACTATGGCACCACTGTGGACGTGAGTACCTGGCAGTAAGTCTGTGAAAAGATGGAAGGTGTCCCAAGCTATGGGGCGTATGCATATAGCCTGCGGAACAAACAACGGCGACGTTGTCCCCAGGGCCCAAAAGGCACGTGGATAAGATCCACCTATATGTTTACCCCATAGTGTAAGTCACTGGAAGTCCTAGTAATGGATGTCTGGAGTAAGGCTCACGGGGTAGGGCGAAGGATGCCCAGAAGGTACCCGTAGGTAACCTTAAGAGACTATGGATCTGATCTGGGGACCGGATGGCGCCATCACCATGACGTGGAGGCCGGTTTAAAAAACGTCTAAGCCCGACCAACAACCTAGGGGACTAGGTTTTCCTTTTTTATTCATGTATGACGTT
B3: TRV NGS910 (nucleic acid)
DNA: ATGCGACGTGGTTGGAGATTAAACCGACTCCGACGAAAGTGCTATCATGCCTCCCCGATTATGTGATGTTTTCTGCCCTGCTGGGCGGAGCATTCTCGGGTTGATACACCTTGAATCCTTCATCCTTGGACCTCAGGTCCCCCGGTCTAAGCCGCTTGGAATACGACAGGGTTATTTTCCAATCTTCTCCTTTCTACTTTCATGAGTCCTATTCATGAAAAGGGTCTGTGCTGCCCCTTCCTTCTTGGAGAATCTGCGCGGCGGTCTTTCCGTCTCTCGAAAAGCGCAGATGCAGCATGCTGGAACCGGTGAAGAAAACAGTTCTTTGTGGAAACTTAGAGCAGACATCGAAACAGCTGTAGTGACCTCACAGTAGCAGCGGAACCCCCTCCTGGTAACAGGAGCCTCTGCGGCCAAAAGCCCCGTGGATAAGATCCACTGCTGTGAGCGGTGCAACCCCAGCACCCTGGTTCGATGGTTGTTCTCTGTGGAACCAGAGAATGGTCTTTCTCAAGCCCTCCAGTAGAGAAGCCAAGAATGTCCTGAAGGTACCCCGCATGCGGGATCTGATCAGGAGACCAATCGTCAGTGCTTTACACTGGCGCTTTGGTTTAAAAACTGTCACAGCTTCTCCAAACCAAGTGGTCTTGGTTTTCACTTTTATCAAACTGTTTC
modifications: lipid formulation; source: /note="Description of Unknown: TRV NGS910 sequence"

tested on: HEK293 cells; assay type: cell-based, human; details: circular RNA encoding Gluc with the listed IRES (UTR truncated to 675 nt) transfected into HEK293 cells; supernatant after 24 hours

Q: How did the “Expression (luminescence from secreted Gluc protein)” value (“Expression” for short) turn out when B1 was run?
A: Its value is 6.04E+07.

Q: How did the “Expression” value turn out when B2 was run?
A: Its value is 2.76E+07.

Q: With B3 as the molecule, how does the “Expression” value read?
A: Its value is 3.84E+07.
